Measurements as given in the DeepSol protein solubility set.

Experiment: soluble on expression in E. coli; label from the status in PepcDB or PDB records

Sequence | soluble on expression in E. coli
MADGQVAELLLRRLEASDGGLDSAELAAELGMEHQAVVGAVKSLQALGEVIEAELRSTKHWELTAEGEEIAREGSHEARVFRSIPPEGLAQSELMRLPSGKVGFSKAMSNKWIRVDKSAADGPRVFRVVDSMEDEVQRRLQLVRGGQAEKLGEKERSELRKRKLLAEVTLKTYWVSKGSAFSTSISKQETELSPEMISSGSWRDRPFKPYNFLAHGVLPDSGHLHPLLKVRSQFRQIFLEMGFTEMPTDNFIESSFWNFDALFQPQQHPARDQHDTFFLRDPAEALQLPMDYVQRVKRTHSQGGYGSQGYKYNWKLDEARKNLLRTHTTSASARALYRLAQKKPFTPVKYFSIDRVFRNETLDATHLAEFHQIEGVVADHGLTLGHLMGVLREFFTKLGITQLRFKPAYNPYTEPSMEVFSYHQGLKKWVEVGNSGVFRPEMLLPMGLPENVSVIAWGLSLERPTMIKYGINNIRELVGHKVNLQMVYDSPLCRLDAEPRPPPTQEAA | soluble
MRNEEKRALRRELRGRRSQMGRDVRAAATVKINHLLKRYIKKGRKIGVYWPMGKELRLDGFVRAAQKRGAELYLPYIEPRSRRMWFTPYPADGVKQERKRGRAKLHVPQFAGRKKRVHDLNLLLVPVVGMDRLGYRLGQAGGYYDATLSAMKYRLQAKTVGVGFACQLVDRLPVEAHDRSLDGFVSEAGILCF | not soluble
MEEERQQSPLEGLSEEALKHVHQLDEPIPIELQASYFRLSAEMRRRGIQLSENEVQDAEQLLFDPVLSDDIKKMTLLRLAITGNITVFRIIERYLESAPDSMRPWALMAQLEARIGILSDLVDEKQLVITSGLGGHDGMMRFMAFLHTDKLQDFEHYQEELIEKELLYRIGKASGEVERLEMHNNYLLLTFLVPINYDLRNFFSSFIAECNQFGHFLSTTFIITNTQLLTPQGAQVALKKYAEENDLPATN | not soluble
MGSDKIHHHHHHMTRAELYAVLDRFLAALDARDPTALDWAPGAHHSENNVMLEIGDGVWGTIDRLGDYRLRFADTRTRQVGYFGTVIEPIEESAFTLRLALDEAGRIAECEMLIVRQSDSGIKFENCRYWDKPILHREPEAPVSRQEMVRLSNGYFDTLQRNDGTIHTRFHPDCNRVENGVQTTRNPDFAKIVPVSALGCEEQFRMGNYRYDDDLRARRFPLVDEERGLVLAFGFIDHSGRLREFQLTDGRTVKSPVLRPHSFYISELFKIDHGMIEQIEANFITVPYRMPSPWDLL | not soluble
MTGFKVSSFFYILALSRFFNAGRERACDKLKITVTHLYWFIIRKLLLHEVHVHVSRVCNVSFILSPCLFRNFFTLSLHVLYVMYEQALTPEFFRQWWDIIQSK | soluble
MGSDKIHHHHHHMLPLEGLTVIAVEQAVAAPYCSSRLADAGAHVIKIERPEGDFARGYDAAAKGQSSYFVWLNRGKESAVVDLATKEGRAELEKLIASADVLLQNLKPGSMDKLGFARERLRKDYPKLIICTISGYGDEGPYAHRKAYDLLIQAESGLASITGGPESASRVGMSIVDVATGATAHAAILEALIGRGRTGQGADIRISMFDVMADWLTVPLLNAEAGNPPKRLGLAHPSIAPYGVFTSKDGKDILISIQSEREWKKLCSDVLRQPDLPNDPRLCNGVERVKNRAYTDKIVADIFGSLTRDDLLEHLAAADIAFAEVNAMEDLSHHPHLRRIEVDTPNGKVSYPAPAAIFVGDERRYGAVPGIGDKRK | not soluble
GASTRDYEIQRERIELGRCIGEGQFGDVHQGIYMSPENPALAVAIKTCKNCTSDSVREKFLQEALTMRQFDHPHIVKLIGVITENPVWIIMELCTLGELRSFLQVRKYSLDLASLILYAYQLSTALAYLESKRFVHRDIAARNVLVSSNDCVKLGDFGLSRYMEDSTYYKASKGKLPIKWMAPESINFRRFTSASDVWMFGVCMWEILMHGVKPFQGVKNNDVIGRIENGERLPMPPNCPPTLYSLMTKCWAYDPSRRPRFTELKAQLSTILEEEKAQQEE | soluble
EGKKIVFISDIHHGPYFERERVADLVRKVNELEPDIIILGGDYVSGDVGYIGACFEELSRLKADMGIFGVTGNHDEWTDYNLTVKCMENAGITVLSNRAEWLEIGDDKIKIAGVDWSTDWYFNSEPYVDPLIKDAEENDFVILVSHTPDLAEELTTDKVDLVLSGHTHGGQITFFGLWAPYVPSFYGQKYRTGIVKTDKTMALVSNGVGNTFLPIRFF | not soluble
MAHHHHHHMTKVWMPWAYQALLAYAHSGAAHGQANLWLKGQTSTPLQRICDPVPNLLISQSSQGGQRALWLLHRPESVLGLVVSPQWQGESGDHELCDASVVSKRKIVRVMKHLHSLPFRVAGSSPLRPPMVVHKNHLVGWRIDGKAAPLYAHTLDQLAKLKPTQFKTIEPKNAFICRTYYEWDNWKEVSMEPGWTWHHVDEEIANNILDGTLTFDGLRATATDTP | not soluble
MKQTQRHDAIIELVKKQGYVSTEELVEHFSVSPQTIRRDLNDLAEQNMILRHHGGAALPSSSVNTPWHDRKATQTEEKERIARKVAAQIPNGSTLFIDIGTTPEAVAHALLGHSNLRIVTNNLNVANTLMAKEDFRIILAGGELRSRDGGIIGEATQDFIAQFRLDFGILGISGIDSDGSLLEFDYHEVRTKRAIIENSRHVMLVVDHSKFGRNAMVNMGSISMVDAVYTDTLPPPGVMQVLTENHIQLELCLEHHHHHH | soluble
MGSDKIHHHHHHMMNIPPFINTIIGQQPYPLLFAIISGSHLYGFPSPDSDYDLRGVHILPVEEVVGLETGNETIEVSEIREALEIDLVTHDVKKFFLMLLKKNGYVLEQLYSPLVLTTSPEAEELKFIAKGCITRNHYYHYIGFAATQWKLFENERTYRLKPLLYVYRVLLTGIYLMQTGIVEANLMKLNEVFNLPYIHDLITQKIAGKEKSVVSNVNVDFHQIEYERLRHKLQEVYESSRLPEVPSANAALHNLLVRLRTNVKLRK | not soluble
MSLNPEEEVITLMKKAGIDLVATLPCDRIKNLLPLVSKNFPEIKMTREENGVGICAGFYLAGGKPLMLIQSTGLGNMINALESLNVTCKIPLPVLTSWRGVYKEAIEAQVPLGVHLPAILEGAGLAYTIIDEVEKLHQIENVISDAFENSRPHIALISPKVWEASECCAWQGAGMPEKPEVMERTCSIFLKKEVLKPVMLRNDAICAIASELDDEVTVTNLGVPCKELYACKDRDLNFYMFGSMGLVSSIGMGIALRSEKTVVAFDGDGSLLMNPNALLEIAKESPKNLIIIALDNGAYGSTGSQETCALRYIDLEIFANACGITNTAKVNAREELIKIFKKFRDMKELALIHVILKPGNTNAPNIPLSPEGAAKRFKEALEAKKNEGHHHHHH | soluble
MPKKNNTKRAPPSVPKPSGPPPRLLQLTSSDGHLLQGDIRALLLSSTLAATIRELGYDKEYCAELKPVPVNNVVGFTLKLLIEWCDKHKEDDPAIALAEKDKKNICIPSWDRHFLSRLPMSNLFDLITAAYHLDVTGLINYGCKTVANSAKGKNAEEMRELFGIPEPWEQPSTSTATWDD | not soluble
MNVTEISAGQFQEMVQAGATRLHTNAEYVNSLNVFPVPDGDTGTNMNLSMTSGAKAVADSRSEKVGELAGALSKGLLMGARGNSGVILSQLFRGFSKQIPEVTTLNAKDLAAAFTHGVETAYKAVMKPVEGTILTVSREAARSGERKAKETDDCIEVMTAVVAGAKRALAKTPDLLPVLKEVGVVDSGGQGLLFIYEGFLEALSGEFLPTETYEPSPAEMDEMVNAEHHRGVSGHVATEDIKFGYCTEIMVRIGEGPTVDSAFDYETFRNYLNELGDSLLVVNDDEIIKVHVHTEHPGEVMNYGQKFGSLVKIKVDNMRLQHETLVERDAQQEALTEKVRVPFAVIAIAAGEGVQELFRSLGASYIISGGQTMNPSTEDILKAVKEVNAEQVIILPNNKNIFMAADQAAEVADVPVAVVPSKTISQGMTAMLAFNDQQSLEENKASMTEMLDSVVSGQVTTAVRDTTIDDVEIKKDDFLGMIDGKIVVSEADRFNASLDTLNRMIDEDTEIVTIIVGEDGSVEEAEKLIAILVSENDELETELHEGGQPVYPYLFSAE | not soluble
GPGSMHPGLPRAFPDTEWQTVADIFRRRAPVSFLAPNSSASATADPAAAAEAWVQQEIGYYEANYTTVEDLNVCVTTFNVGCKKPVLPLTSLACLTSGGGGADGAPVRPTDLIVVGLQEVDMSATALFKQETEASAPWVAGLNAAIGASRCSSTAASSSSGAGASPYYAFPPKQLVGLLLCVFIRRPLLSAVSESSTATVATGALGSMGNKGAVGFHLVLHRTSICIITAHLAAGQSNVSKRNEDINTILKSMDFNAARRAEMQISASASMPMDESVFLELHPRDHDIIIVAGDLNYRLRLPYETAVHLANAGQFSELLQYDELATEMKSPHTPWLNFINFTPTHMPTYRFDIGTDAYDTSEKRRVPSYTDRICMWSRRKSMESRVRLDRLSALMEVRSSDHKPVQALARIPISVEVPAQKAQVISSLREKVAAVGLAQASSAKISLSTSKVNFQAQSFHHCGAQETVTVQNSGDCVAVVRVVRQREGDYSEGTWLRATPLELAILPGESQDVVIETAIDPRCMTWLAAWSPYQGRGRVSLTSVLLFCCRNGPVQAVECQCLLSPSVFGNGLDSIALLQDKPCVEAYAQKADFEEVVRQVRPHVPKELWYLAHVIAQHPREGGLFTRSTDKDVCCRIMELLDTKNAPLPAGTDVHCAAECLLAFLKNLLEPVVPYAQYTTALAAGRAKGKAPLQFLRQLPTMHANVWIYVMSLLNYLLRPVHSCDNELDANFLAHIFSAVLIVRPTNAQGAIPARLQQGGGVDQQVRQQLQQESDDALALVAYFLSTPPSMLAGVE | not soluble
HSSGLVPRGSHMAIIFPGQGAQKVGMAQDLFNNNDQATEILTSAAKTLDFDILETMFTDEEGKLGETENTQPALLTHSSALLAALKNLNPDFTMGHSLGEYSSLVAADVLSFEDAVKIVRKRGQLMAQAFPTGVGSMAAVLGLDFDKVDEICKSLSSDDKIIEPANINCPGQIVVSGHKALIDELVEKGKSLGAKRVMPLAVSGPFHSSLMKVIEEDFSSYINQFEWRDAKFPVVQNVNAQGETDKEVIKSNMVKQLYSPVQFINSTEWLIDQGVDHFIEIGPGKVLSGLIKKINRDVKLTSIQTLEDVKGWNEND | soluble
MSLQNFQTEEISALIQNYDFDKALYKLKSHYSDMTFKEADSLLLANNIVYSENNETQQQQYLANLDTLLRDINNNHSEIASFTIYKNDMILVNTHNLYNHGFYKINSSLENIYFNLSEITDNDDQFAKYFKLLNLFFSTISRDAILSTSDKFNDIAIRKHEHSTNISTAFSQIFNECLKSKFEKNNVKTLFAELATYDIIEILNELIENHLKDTSYHLDNFVEAFTGNVMNSSIIIENLYHQIVVQNKLLQLVLLSFLFLDFDTNIFGDKIETLLDINYKQTFFMSFYEFDSKLTQSSMSMHTLQYPHGVQIFSSSELAGYLEFEIATLYSTPIVDSRLYIAFMQEYVLNWREKMEPPQKAINFFKYILEPLYRRNEIDEEFLLAMSMFNCGRFEQAYEFFTMNDYMLHLANKLPPFLKNVQQNSLWYELLKTFTESSTNAHYYLQLSLLFKTYNRLDLALKCVSKSVEYSMKHPSVEEGHHHHHH | soluble
MSLSNLINGKIPNQAIQTLKIVKDLFGSSIVGVYLFGSAVNGGLRINSDVDVLVVVNHSLPQLTRKKLTERLMTISGKIGNTDSVRPLEVTVINRSEVVPWQYPPKREFIYGEWLRGEFENGQIQEPSYDPDLAIVLAQARKNSISLFGPDSSSILVSVPLTDIRRAIKDSLPELIEGIKGDERNVILTLARMWQTVTTGEITSKDVAAEWAIPLLPKEHVTLLDIARKGYRGECDDKWEGLYSKVKALVKYMKNSIETSLNEGHHHHHH | soluble
MQALAAMPAPVAASVRIVLTDIDDTLTTEGRLPAGAYAALERLEQAGIVVVPITGRPAGWCDHIARMWPVRAVVGENGAFYYAYDRSARRMNAHYWADAATRAANRQALQAIRERVLREVPGTAVASDQDYRVADLAIDFCEDVPALPDSAVGRIVEIFHEAGAQAKVSSIHVNGWFGDYDKLTMTRTLFEREFGLSIDSALQHTLFIGDSPNDEPMFKFFPISVGVANIQSQLHRIQHRPAFVAAARGGDGFVEMAERLLANRG | not soluble
